Assay results as given in patent US20110183888A1.
Square brackets hold non-standard residues; d marks the D form. Ends that are not written are not given here.

What was measured:
Experiment in all cases: cell-based or functional assay
[1] = biological target: JNK1, P45983
[2] = biological target: JNK3, P53779
[3] = biological target: JNK2, P45984

Chain of JNK1, P45983 (P45983 whole entry): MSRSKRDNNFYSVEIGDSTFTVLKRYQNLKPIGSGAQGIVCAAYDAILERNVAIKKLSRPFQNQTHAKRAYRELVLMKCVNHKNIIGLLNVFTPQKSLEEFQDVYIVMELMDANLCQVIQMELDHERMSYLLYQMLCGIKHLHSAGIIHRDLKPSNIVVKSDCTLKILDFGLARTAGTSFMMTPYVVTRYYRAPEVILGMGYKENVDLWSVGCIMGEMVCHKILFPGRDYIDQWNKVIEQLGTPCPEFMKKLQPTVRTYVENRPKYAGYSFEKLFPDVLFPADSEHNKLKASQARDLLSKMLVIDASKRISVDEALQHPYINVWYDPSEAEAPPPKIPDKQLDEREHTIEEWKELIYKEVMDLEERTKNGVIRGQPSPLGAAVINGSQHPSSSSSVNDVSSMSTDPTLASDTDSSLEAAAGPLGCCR
Chain of JNK3, P53779 (P53779 whole entry): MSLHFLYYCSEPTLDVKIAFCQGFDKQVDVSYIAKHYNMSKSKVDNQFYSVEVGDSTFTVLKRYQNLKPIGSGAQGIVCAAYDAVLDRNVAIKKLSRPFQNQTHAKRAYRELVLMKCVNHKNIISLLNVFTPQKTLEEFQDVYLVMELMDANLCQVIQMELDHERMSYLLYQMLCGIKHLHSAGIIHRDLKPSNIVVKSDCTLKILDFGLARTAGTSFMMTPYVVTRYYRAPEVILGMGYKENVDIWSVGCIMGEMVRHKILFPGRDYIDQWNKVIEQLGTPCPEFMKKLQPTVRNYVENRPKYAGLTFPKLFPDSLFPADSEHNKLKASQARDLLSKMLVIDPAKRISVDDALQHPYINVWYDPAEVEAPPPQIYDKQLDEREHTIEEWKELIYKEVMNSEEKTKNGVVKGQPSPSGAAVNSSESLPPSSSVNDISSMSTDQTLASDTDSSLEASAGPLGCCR

Binder	inhibition of c-Jun, ATF2 and Elk1 phosphorylation by JNKs (solid phase kinase assay, 33P, SDS-PAGE) [1]	inhibition of c-Jun, ATF2 and Elk1 phosphorylation by JNKs (solid phase kinase assay, 33P, SDS-PAGE) [2]	inhibition of c-Jun, ATF2 and Elk1 phosphorylation by JNKs (solid phase kinase assay, 33P, SDS-PAGE) [3]	inhibition of GST-Jun (aa 1-73) phosphorylation by recombinant JNK; fold less efficient than L-TAT-IB1(s) [1]	inhibition of GST-Jun (aa 1-73) phosphorylation by recombinant JNK; fold less efficient than L-TAT-IB1(s) [2]	inhibition of GST-Jun (aa 1-73) phosphorylation by recombinant JNK; fold less efficient than L-TAT-IB1(s) [3]
GRKKRRQRRRPPRPKRPTTLNLFPQVPRSQD [L-TAT-IB1(s)]	2.5 µM	2.5 µM	2.5 µM	–	–	–
[dD][dQ][dS][dR][dP][dV][dQ][dP][dF][dL][dN][dL][dT][dT][dP][dR][dK][dP][dR][dP][dP][dR][dR][dR][dQ][dR][dR][dK][dK][dR]G [D-TAT-IB1(s)]	–	–	–	10 to 20 fold	10 to 20 fold	10 to 20 fold
